Results on 20 sequences are retold here after a protein production outcome set (Wang et al. 2014).

This series is described as follows: label from the status in PepcDB records.
“RDSLFNDPNAPVLGNPEGDVTVVEFFDYNCPYCRRAMAEVQGLVDADPNVRLVYREWPILGEGSDFAARAALAARQQGKYEAFHWALMGMSGKANETGVLRIAREVGLDTEQLQRDMEAPEVTAHIAQSMALAQKLGFNGTPSFVVEDALVPGFVEQSQLQDAVDRARKAA”: the protein production entry is listed as “not failed”.

On to “MGNNGRDILAGLSVAGLMLPEAIAYSGIAGVPPQHALYAAMAGCLVYALLGQSRFAIISPTSSSAAILAAMLAALVPQPGQKMLLVAVAVFLVGLFFLAAGTLRLGALSSIISRPVLRGFAFGLAILISLKQFPAIFGMPQAGAGTFEAILQILTNPGQWNGFSLSIGIAALILLLFARRYPQIPGSLIIIALAIPISVMFDLQQRGVDVVGPIDLSGIWGSVTTLSLDELAHVARFAPPLVLILFAESWGTIRGLSLRHGEDVDANRELKTLGIANVASAALQGMPVGAGFSAGAASEAANPRTRMASAIAAIGLAGFTFAAADWFAYIPHAALSAIIIVALLHALDPSPFLRLWRLRQDLVLALAATAGVLFLGVLNGMLAAIVLSFAVFLQRLSSPRIVMLGRLGASHDFVDVKRHPDAAEPAGMLVLRPAQPLFFGNAEPTFAEITRRILASPDINAVIISLEETFELDTTALEALLEFDASLRGRNIGIRYAPMHDAVRDVVAAGGGDDLLRRANYSVDDAVAAMDGLKEEK”, for which the protein production entry is given as “failed”.

Consider “MEPIVFNGYHTLITATLVLLVGRFFVNKIKVLQDFNIPEAVAGGLIAAVAILCLYNWFGVSLQFEQSLQNAFMLAFFSSVGLSADFSRLKQGGMPLVIFLVVVSLYIIIQNVIGVGLASALGLDPMIGLLTGSITLTGGHGTGAAWAKIFSEEYNITGVMEMAMASATFGLVAGGLIGGPIARRLINKMKKDRSQQITKRVDTSAEQYDGSTFEDHDSIRYITASSTIETMALFAACLGFSSIIVNTFPDISLPQFVWALGFGVILRNVLTKVFKFDMFDRAIDVFGNASLSMFLAMALMSIKLWELTGLAGPMLIILVVQTLVMILYGYFVTYRVMGKDYDAAILTAGHCGFGLGATPTAVANMQSVTEKFGSSHKAFLIVPLVGAFFVDILNLAVITSFVDFLR”, for which the protein production result is “failed”.

Consider “MDTPILIPTDMNRIPFFYLLQISDPLFPIGGFTQSYGLETYVQKGIVHDAETSKKYLESYLLNSFLYNDLLAVRLSWEYTQKGNLNKVLELSEVFSASKAPRELRAANEKLGRRFIKILEFVLGENEMFCEMYEKVGRGSVEVSYPVMYGFCTNLLNIGKKEALSAVTYSAASSIINNCAKLVPISQNEGQKILFNAHGIFRRLLERVEELDEEYLGSCCFGFDLRAMQHERLYTRLYIS”, for which the protein production result was “failed”.

On to “MADTRPERRFTRIDRLPPYVFNITAELKMAARRRGEDIIDFSMGNPDGATPPHIVEKLCTVAQRPDTHGYSTSRGIPRLRRAISRWYQDRYDVEIDPESEAIVTIGSKEGLAHLMLATLDHGDTVLVPNPSYPIHIYGAVIAGAQVRSVPLVEGVDFFNELERAIRESYPKPKMMILGFPSNPTAQCVELEFFEKVVALAKRYDVLVVHDLAYADIVYDGWKAPSIMQVPGARDVAVEFFTLSKSYNMAGWRIGFMVGNKTLVSALARIKSYHDYGTFTPLQVAAIAALEGDQQCVRDIAEQYKRRRDVLVKGLHEAGWMVEMPKASMYVWAKIPEPYAAMGSLEFAKKLLNEAKVCVSPGIGFGDYGDTHVRFALIENRDRIRQAIRGIKAMFRADGLLPASSKHIHENAE”, for which the protein production entry is “failed”.

For the sequence “MNSILSSFKKNQKGIILILIASICTTIGQTLWKMSAMHNMLYILIGFFFYGIGAVGMIIALKYGSFSVIHPMMSMGYVFTIIVSYILLKESVGLGKIIGVILIMFGVAFIGLGDE”, the protein production result is “failed”.

On to “MAENAWVRVCALQELPELGARVLDVEGLPPIAIFRTASDQVFALRDRCPHKGGPLSQGIVAGETVTCPLHGWAIALQSGQACAPDVGCAPRYPVKVEAGAVWIVLQPVLQADAVAEPAALEHHHHHH”, for which the protein production result is on record as “failed”.

For the sequence “MIGREGVTTLRFTVKQQFITHKHTLYGVAAILLWGSLMALTRRVAEEFSPIGGAALIYTVSTLFLLFAMGMPRLKAGSSRYILIGGALFVSYEICLALALGMASDRLQAIEMSVINYLWPALTVLIAVLLSQRAVSFWVYPSVGLAFAGVAWTIVAEQGISLADFSARIATNPAVYAMALTGAFIWAIYCNVTQRLARGQNAIVLFFAATAATLWLQYALSNEPALSFTGSSMGTLLLTGIVMGSGYALWNVAILRGNMLLLATLSYFTPVISTLFSSLILGVVLGLSFWQGVIMVTFGSLICWWVTRESSSSTGEVPETPPPLKEQS”, the protein production entry is listed as “failed”.

In the case of “ELDDATCDDIYSGYLKAYEQNWTAYPDAKGVLDRAVATGAPVGILTNGAAPMQQDKLDRTGLGLPELVMLAASTLDSAKPRPEMYARALTHLGARTATIIGDDWTNDVAAPRELGWNALYLDRSGTDPRADIHSLDELFH”, the protein production entry is “failed”.

For “MGFTQNSVYFLNVSEALATPQDKLHTVRLFGTVAADGLTMLDGAPGVRFRLEDKDNTSKTVWVLYKGAVPDTFKPGVEVIIEGGLAPGEDTFKARTLMTKCPLEHHHHHH”, the protein production entry was “not failed”.

On to “MTFFTNYTNLALIAILLVSGGLLAWPALRRGRGGLSAAEATQLINRRNAVVIDLRAATDFAAGHLPSARQVAAGEIGAKIAQVAKNKSTPVLLVCQNGQQSQKAAREVQAAGYAEVHVLEGGVAAWQQAGMPVVKQGVAK”, for which the protein production result is “failed”.

Regarding “MEIMEFEEAFKEVYEMVKPKYKLFTAGPVACFPEVLEIMKVQMFSHRSKEYRKVHMDTVERLREFLEVEKGEVLLVPSSGTGIMEASIRNGVSKGGKVLVTIIGAFGKRYKEVVESNGRKAVVLEYEPGKAVKPEDLDDALRKNPDVEAVTITYNETSTGVLNPLPELAKVAKEHDKLVFVDAVSAMGGADIKFDKWGLDVVFSSSQKAFGVPPGLAIGAFSERFLEIAEKMPERGWYFDIPLYVKYLKEKESTPSTPPMPQVFGINVALRIIEKMGGKEKWLEMYEKRAKMVREGVREIGLDILAEPGHESPTITAVLTPPGIKGDEVYEAMRKRGFELAKGYGSVKEKTFRIGHMGYMKFEDIQEMLDNLREVINELKKQKGIN”, the protein production entry is “not failed”.

Consider “MKLISQAVKNYLPELSLRQKQTNNIIFITFWSQFSVYALNTVLVLFLTRPLIAQGLGYSQAKAYAFIGVTQATGYLMPILGGYMADNIVGVRRSILLGSIMLACAYLLVMLSGYTISSLGDQLFIIAFAFIPATNSLLMGTASSMVSHIYSDDAIKAKSAMTYYYMAINVGALLATMIAPVLLESRYGPLSVLTLTFIGKSIAALNFAKRYSIYDSVIWGMDKSKFSNQGLLRLVAYIAAIYSLTLYAYTHVYIASTLIGAGCAIGILWFLIKTIMLKGETRSKQMIAVLLIIEAIVFFIIYNQMNSTLVLFAENNSDLSFLWFKISPAQYQMLNPLLILLIGSQLPRFYRFFSRFTIPYQFAAGTILSGIALLVMAFAAQNAINGLVNGNYIALTYILISIAELWVSAIGLSMIGLYCDARAIAFAMGVWYLASSMSNAISGRIAGWVAIPENINSALESLPYYKNYYLIMGISALGLGILMYFVAYYLHKIMKRRGIELA”, for which the protein production entry is recorded as “failed”.

For the sequence “MKIRTTLTLQYAGITAAVFFAFVIAVYYVSEHSRSNAFFRNLQSEAITKAHLFLNNQVDAKTMQSIYLNNQKFINEVEVAVYTTDFKILYHDALQNDIVKETPEMVKRILKRKNISFYVDEYQAIGLVYPFEGQYYIVTAAAYDGYGYANRDALRNMLILLFIGGLSVLAIVGYILSRSTLKPIRNIVREAEKITASHIDKRLPVKNEQDELGELSITFNALLERLEKSFNSQKMFVSNVSHELRTPMAALTAELDLALLKERTSGQYQAAIGNALQDSRRIINLIDGLLNLAKADYQSEQITMEEVRLDELLLDARELVLKAHPDYHIELVFEQEAEEDNVLTVIGNSYLLTTAFVNLVENNCKYSSNRTSSVLIAYWEQWAIIRLSDNGVGMSDADKENLFKLFYRGENKNIAPGNGIGMVLTQKIIHLHKGELTVSSHKDEGTTFVVKLPHI”, the protein production result is recorded as “failed”.

As to “MEEGKKMKRIIGMIVSLALLAGLLAGCSTSATGSNINTPAAQAEKTPGAGGSGAEEAAWPRTIVDATGKEITLTEQPQRIAILHSLYLEYFLALGTPPIASAGASTGDAMKALGEWETLKPYAGTAKIIDLGSARDLNLEAILGANPDVIVTFKGQGNLDKIYEQLEQIAPVILVDFSAPWQEQILACAEIVNKEADAQKLIKEIEDSVQSAKEKLSRHQDKTIAIFRTDGGKAFVTRGNKDYYDTFGIAKPEGYPDDYETLSLEAVAEMNPDYIIFQDFITTSQAFVKTQEASSVWQAMEAVKKGQVVYFDDSLNTFGPLATKLTAEKLIQIISD”, the protein production entry is listed as “failed”.

Turning to “MARSRVAGSKEAGPKVAGSRSRAAGQGRVGARLADGLRAYRMIAGMWIRSTMAYRASFVMTTFGNFGATALDFVAILLMFSQVDALGGYTLPEIAFLYGVAGIAFGLADLAIGSMDRLGRRVRDGTLDTLLVRPAPVLAQVAADRFALRRLGRITQGLLVFGYAVAALDIAWTPLKVLMVPFMMLSGGAIFAAVFVAGGAFQFVAQDASEVQNSFTYGGQTLLQYPPTVFAADLVRGVTFVVPIAFVNWLPALYVLGRPYPLDLPTWVAFTPPLVAAACCALAGLAWRAGLRSYRSTGS”, the protein production entry is given as “failed”.

“SASKRWSPPRGIHFTVEEGDLGFTLRGNTPVQVHFLDPHCSASLAGAKEGDYIVSIQGVDCKWLTVSEVMKLLKSFGGEEVEMKVVSLLDSTSSMHNK”: the protein production result is “not failed”.

Consider “DWLDLNTTSSVETGQAIVTLDDAQIALNGIYRLASGHSYYGDNYWYYGDCRAADVQARITKGDGKRVSPYYEYNVLASDNLNIVLPWNTVYKVIRQTNNLIQKIESGSIQSSDTKELNRIKSEALVMRGLSLFNLTRLFGMPYTNDKGASLGVPIETSPSDPTHKPSRSTVAQCYEQVVSDMSNALSGLRQETSNGYINYWAAQALLSRVYLNMGEYQKAYDAATDVIKNNGGRYQLYSYEEYPNVWGQDFQSESLFELYITLSEPSGGTGGEGAPMVYANEATVDWNNLILSEDFLNLLNEDPKDVRHCLTKESVIENNTGLPAAAMHEKVYLAKFPGKTGDDPKTNNICIIRLSEVYLNAAEAGLKKGTDIEEAQGYLNDIISRRTTDTSQQVSTETFTLDRILKERRKELVGEGEVFYDYLRNGLAIERKGSWHLETLKASNAQKIEATDLRIALPIPQSEIDANPNIQQNPR”, for which the protein production entry was “not failed”.

Consider “GVDRWPEYYPETGRDIWIDSVMRQEYLWYRDMPSPAAPDYFQKPEAFLKKAVASMDNGFSKIDSLLDEPIPSYGFDYTLYKVLDNDTAYNALISYVVPGSPAEEAGLQRGHWIMMMNGDYITKKVESELLQGSTRQLQIGVYKEVVGEDGEVTGGVVPIGETTMPASRSLVDKPVHRFEIIPWNGKKVGYLMYNEFKAGPTTDSQAYNDDLRRAFRDFQTGGVNEFVLDLRYNTGGSLDCAQLLCTMLAPADKMNQLLALLRYSDKRVEANQDLTFNPELIQSGANLNLSTVYVLTTNATRGAAEMVINCLNPYMKVVLIGTKTAGEYVATKPFVHPTDRFILNLVVCNVYNAEEKSDYATGFKPTYEYNEDSYLSTYLPFGNTNETLLNAALKIMSGITDK”, for which the protein production entry is recorded as “not failed”.

In the case of “VEPQSQALLHAQPIISIRVWGVGRDSGRERDFAYVARDKLTQMLKCHVFRCEAPAKNIATSLHEICSKIMAERRNARCLVNGLSLDHSKLVDVPFQVEFPAPKNELVQKFQVYYLGNVPVAKPVGVDVINGALESVLSSSSREQWTPSHVSVAPATLTILHQQTEAVLGECRVRFLSFLAVGRDVHTFAFIMAAGPASFCCHMFWCEPNAASLSEAVQAACMLRYQKCLDARSQASTSCLPAPPAESVARRVGWTVRRGVQSLWGSLKPKRLGAHTP”, the protein production result is reported as “failed”.
